# Assay results reported in patent US20220187308A1 (published 2022).
# T1: soluble human IL-6 receptor (human, UniProt P08887 20-357)
# T1 construct: range 1-357; The stated range begins at position 1, so it includes the signal peptide; no cleavage site is stated; also called hsIL-6R
# T1 sequence (looked up): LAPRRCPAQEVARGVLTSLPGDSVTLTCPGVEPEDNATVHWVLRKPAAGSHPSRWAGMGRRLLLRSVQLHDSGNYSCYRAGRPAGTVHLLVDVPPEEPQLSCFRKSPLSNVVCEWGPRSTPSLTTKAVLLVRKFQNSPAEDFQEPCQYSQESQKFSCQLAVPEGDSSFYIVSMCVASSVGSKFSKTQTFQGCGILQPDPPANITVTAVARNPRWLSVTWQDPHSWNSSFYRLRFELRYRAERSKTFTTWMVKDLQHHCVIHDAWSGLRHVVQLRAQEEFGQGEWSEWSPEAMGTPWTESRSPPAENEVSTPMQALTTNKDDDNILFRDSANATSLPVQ
# Target: T1, soluble human IL-6 receptor
# Assay: SPR (Biacore T100); ratio of the KD values at 3 µM and 2 mM CaCl2
# Experimental: The antigen-antibody reaction was kinetically analyzed in solutions of 2 mM and 3 μM calcium ion concentrations as high-calcium ion concentration and low-calcium ion concentration conditions, respectively. Each antibody of interest was captured onto Sensor chip CM4 (GE Healthcare Bio-Sciences Corp.) with protein A (Invitrogen Corp.) immobilized thereon in an appropriate amount by the amine coupling method. Two types of buffer solutions were used as running buffers: 10 mM ACES, 150 mM NaCl, 0.05% (w/v) Tween 20, and 2 mM CaCl₂ (pH 7.4); and 10 mM ACES, 150 mM NaCl, 0.05% (w/v) Tween 20, and 3 […] CaCl₂ (pH 7.4). The human IL-6 receptors were also diluted with each of these buffers. Assay was all carried out at 37° C.
row,Ca dependence (KD at 3 µM CaCl2 against KD at 2 mM CaCl2),Binder
1,≥ 120 times,"6RL #9-IgG1 (antibody, V domains shown, also called 6RL #9 antibody; 6RL #9-IgG1 antibody) VH: QVQLVQSGAEVKKPGASVKVSCKASGYTFTSYYMHWVRQAPGQGLEWMGIINPSGGSTSYAQKFQGRVTMTRDTSTSTVYMELSSLRSEDTAVYYCARDDPGGGEYYFDYWGQGTLVTVSS VL: QSVLTQPPSVSGAPGQRVTISCTGSRSNMGAGYDVHWYQLLPGAAPKLLISHNTHRPSGVPDRFSGSKSGASASLAITGLQAEDEADYYCQSHDSSLSAVVFGGGTKLTVLS"
2,~1 times,"H54/L28-IgG1 (antibody, V domains shown, Control anti-human IL-6 receptor antibody described in WO2009125825; also called H54/L28-IgG1 antibody) VH: QVQLQESGPGLVKPSETLSLTCAVSGYSISDDQAWSWVRQPPGEGLEWIGYISYSGITNYNPSLKGRVTISRDTSKNQFSLKLSSVTAADTAAYYCARSLARTTAMDYWGEGTLVTVSS VL: DIQMTQSPSSLSASVGDSVTITCQASQDISSYLNWYQQKPGKAPELLIYYGSELHSGVPSRFSGSGSGTDFTFTISSLEAEDAATYYCQQGNSLPYTFGQGTKVEIER"
3,≥ 60 times,"FH4-IgG1 (antibody, V domains shown, also called FH4-IgG1 antibody) VH: QVQLVQSGAEVKKPGSSVKVSCKASGGTFSSYAISWVRQAPGQGLEWMGGIIPIFGTANYAQKFQGRVTITADESTSTAYMELSSLRSEDTAVYYCARERDYYDSSGYYDAFDIWGQGTMVTVSS VL: ETTVTQSPSFLSASVGDRVTITCITTTDIDDDMNWFQQEPGKAPKLLISEGNILRPGVPSRFSSSGYGTDFTLTISKLQPEDFATYYCLQSDNLPFTFGQGTKLEIKR"

# Target: T2, GC-mIgA (mouse)
# T2 construct: also called recombinant mouse IgA GC-mIgA; mouse IgA
# Assay: SPR (Biacore A100), antibody from culture supernatant captured via protein A/G on CM5, GC-mIgA as analyte, 25 C, 1.2 mM CaCl2, pH 7.4 against pH 5.8
# Experimental: The culture supernatant obtained by the above method was used to analyze GC-mIgA-binding ability using Biacore A100. Antibodies in the culture supernatant were captured onto Sensor chip CM5 (GE Healthcare Bio-Sciences Corp.) with protein A/G (Pierce Biotechnology Inc.) immobilized thereon in an appropriate amount by the amine coupling method. Two types of buffer solutions were used as running buffers: 20 mM ACES, 150 mM NaCl, 0.05% (w/v) Tween 20, and 1.2 mM CaCl₂) (pH 7.4); and 20 mM ACES, 150 mM NaCl, 0.05% (w/v) Tween 20, and 1.2 mM CaCl₂) (pH 5.8). The interaction of antigen-antibody reaction was analyzed under neutral pH and acidic pH conditions. GC-mIgA was also diluted with each of these buffers and injected at a flow rate of 10 μL/min for 60 seconds to interact the antigen with the antibodies captured on the sensor chip. Then, 10 mM glycine-HCl (pH 1.5) was injected thereto at a flow rate of 30 μL/min for 30 seconds to regenerate the sensor chip. Assay was all carried out at 25° C.
# T2 sequence (light, as listed by the source): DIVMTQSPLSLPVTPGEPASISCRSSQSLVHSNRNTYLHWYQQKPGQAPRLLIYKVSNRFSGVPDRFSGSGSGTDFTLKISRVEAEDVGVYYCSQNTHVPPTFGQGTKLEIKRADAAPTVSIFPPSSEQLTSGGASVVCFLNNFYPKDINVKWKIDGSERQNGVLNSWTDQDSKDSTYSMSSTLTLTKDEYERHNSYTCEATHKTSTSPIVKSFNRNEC
row,binding result,Binder
1,binds,"mIAP1B3-3_#024 (antibody, human IgG1, kappa, V domains shown, From His library 1; tested from the culture supernatant of 293-F cells) VH: QVQLQESGPGLVKPSQTLSLTCAVSGGSISKTYSYWAWIRQHPVKGLEWIGYISYGGGTHYNPSLKSRVTISSDTSKNHFSLNLNSVTAADTAVYYCARSGFRVFGAFDIWGQGTMVTVSS VL: DIQMTQSPSSLSASVGDRVTITCRASQSIRSHLNWYQQKPGKAPKLLIYDASHLQSGVPSRFSGSGSGTDFTLTISSLQPEDFATYYCQQHYNSPLTFGQGTKVEIKR"
2,binds,"mIAP1B3-3_#130 (antibody, human IgG1, kappa, V domains shown, From His library 1; tested from the culture supernatant of 293-F cells) VH: QVQLQESGPGLVKPSETLSLTCTVSGGSISSSSYYWGWIRQPPGKGLEWIGSIYYSGSTYYNPSLKSRVTISVDTSKNQFSLKLSSVTAADTAVYYCARHGPSGSYYAFDIWGQGTMVTVSS VL: DIQMTQSPSSLSASVGDRVTITCRASQSISSHLNWYQQKPGKAPKLLIYKASHLQSGVPSRFSGSGSGTDFTLTISSLQPEDFATYYCQQRHHSPLTFGQGTKVEIKR"
3,binds,"mIAP1B3-3_#230 (antibody, human IgG1, kappa, V domains shown, From His library 1; tested from the culture supernatant of 293-F cells) VH: QVQLQQSGPGLVKPSESLSLTCNVSGYYISSGYYWGWIRQPPGKGLEWIGSIYPSGTSHYNPSLKSRVTISLDTSKNQFSLKLSSLSAADTAVYYCARAGVIAGGPRTYAFDIWGQGTTVTVSS VL: DIQMTQSPSSLSASVGDRVTITCRASQSIRSHLAWYQQKPGKAPKLLIYKASHLQSGVPSRFSGSGSGTDFTLTISSLQPEDFATYYCQQSHHSPLTFGQGTKVEIKR"
